Laboratory results from patent US20260232827A1 (Zymeworks, published 2026).

Key:
Biotinylated human FcRn = target: T1, Biotinylated human FcRn (human, UniProt P55899 24-297; P61769 21-119, limits assumed, biotinylated (site not stated)); experiment: SPR (Biacore T200), biotinylated FcRn on neutravidin, antibody as analyte, pH 5.9, steady-state fit
T1 construct: also called Biotinlated human FcRn; human neonatal fragment crystallizable receptor (FcRn)

[1] = target: T2, human FcγR IIIA F159 CD16aF (v5772) (human, UniProt P08637 17-208, limits assumed); experiment: SPR (Biacore T200), antibody captured on protein A, FcγR as analyte, single-cycle, steady-state fit;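 also: five FcγR concentrations per single cycle, 40 s association then 120 s dissociation, responses corrected against a reference flow cell and blank buffer injections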
T2 construct: In-house reagent

[2] = target: T3, human FcγR IIB Y160 CD32bY (v5777) (human, UniProt P31994 43-217, limits assumed); experiment: as above
T3 construct: In-house reagent
T3 sequence (looked up): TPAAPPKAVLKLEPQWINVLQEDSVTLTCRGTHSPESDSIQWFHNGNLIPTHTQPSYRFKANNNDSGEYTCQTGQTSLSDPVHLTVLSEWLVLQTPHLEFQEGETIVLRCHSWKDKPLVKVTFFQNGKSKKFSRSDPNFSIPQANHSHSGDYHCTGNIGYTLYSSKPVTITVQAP

[3] = target: T4, human FcγR IIA H131 CD32aH (v5774) (human, UniProt P12318 34-217, limits assumed); experiment: as above
T4 construct: In-house reagent
T4 sequence (looked up): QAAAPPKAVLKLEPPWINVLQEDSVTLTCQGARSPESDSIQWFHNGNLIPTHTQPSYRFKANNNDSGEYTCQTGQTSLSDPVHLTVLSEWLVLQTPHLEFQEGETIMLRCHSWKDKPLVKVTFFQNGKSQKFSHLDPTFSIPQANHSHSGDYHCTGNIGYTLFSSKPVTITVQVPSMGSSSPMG

[4] = target: T5, human FcγR I CD64 (Sino Biological Inc. 10256-H08H) (human, UniProt P12314 16-288); experiment: SPR (Biacore T200), antibody captured on protein A, FcγR as analyte, multicycle, 1:1 fit
T5 construct: Bought reagent

[5] = target: T6, human NaPi2b (sodium-dependent phosphate transporter 2B) (human, UniProt O95436 1-690); experiment: flow cytometry on H441 cells (endogenous NaPi2b), 24 h at 4 C
T6 construct: Endogenous NaPi2b on the human tumor cell lines IGROV-1, HCC-78, H441 and H1781; also called hNaPi2b; SLC34A2
T6 sequence: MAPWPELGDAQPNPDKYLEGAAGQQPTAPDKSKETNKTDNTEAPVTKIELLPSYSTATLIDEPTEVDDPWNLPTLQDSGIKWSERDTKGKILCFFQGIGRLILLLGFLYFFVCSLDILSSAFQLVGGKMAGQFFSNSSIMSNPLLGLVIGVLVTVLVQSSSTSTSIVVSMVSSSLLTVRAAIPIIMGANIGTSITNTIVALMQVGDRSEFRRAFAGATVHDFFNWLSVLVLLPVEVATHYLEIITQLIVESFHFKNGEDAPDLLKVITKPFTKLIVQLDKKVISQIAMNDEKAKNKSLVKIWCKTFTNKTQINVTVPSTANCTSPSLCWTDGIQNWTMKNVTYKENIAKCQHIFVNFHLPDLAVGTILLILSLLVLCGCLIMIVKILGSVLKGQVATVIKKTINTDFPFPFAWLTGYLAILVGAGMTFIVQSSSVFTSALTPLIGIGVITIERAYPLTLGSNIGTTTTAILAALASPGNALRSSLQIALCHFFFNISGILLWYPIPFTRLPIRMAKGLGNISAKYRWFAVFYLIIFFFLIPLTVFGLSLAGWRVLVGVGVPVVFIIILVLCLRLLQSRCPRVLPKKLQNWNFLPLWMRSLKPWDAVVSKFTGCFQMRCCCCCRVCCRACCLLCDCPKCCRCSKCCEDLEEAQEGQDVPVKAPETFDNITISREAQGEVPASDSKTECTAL

[6] = target: T6, human NaPi2b (sodium-dependent …); experiment: flow cytometry on IGROV-1 cells (endogenous NaPi2b), 24 h at 4 C
[7] = target: T6, human NaPi2b (sodium-dependent …); experiment: cell-based or functional assay
[8] = target: T6, human NaPi2b (sodium-dependent …); experiment: cell-based or functional assay; remark: listed apart in the source
[9] = target: T6, human NaPi2b (sodium-dependent …); experiment: flow cytometry on HCC-78 cells (endogenous NaPi2b), 24 h at 4 C

T2 sequence (P08637 17-208 limits assumed): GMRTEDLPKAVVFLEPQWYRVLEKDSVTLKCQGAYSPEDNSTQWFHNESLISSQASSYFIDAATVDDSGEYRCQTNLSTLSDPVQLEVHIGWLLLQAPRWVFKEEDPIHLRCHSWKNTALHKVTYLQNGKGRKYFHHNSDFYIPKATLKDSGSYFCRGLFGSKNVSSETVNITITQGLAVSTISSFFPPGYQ
T5 sequence (P12314 16-288 limits assumed): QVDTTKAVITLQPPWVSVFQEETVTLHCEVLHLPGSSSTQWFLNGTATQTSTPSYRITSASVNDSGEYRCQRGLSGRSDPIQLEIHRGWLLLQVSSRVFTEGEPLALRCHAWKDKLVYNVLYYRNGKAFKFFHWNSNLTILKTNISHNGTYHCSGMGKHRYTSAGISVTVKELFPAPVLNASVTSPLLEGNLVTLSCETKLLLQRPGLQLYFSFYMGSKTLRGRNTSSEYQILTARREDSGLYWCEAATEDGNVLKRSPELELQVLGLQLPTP
T1 sequence (P55899 24-297 limits assumed, chain 1 of 2): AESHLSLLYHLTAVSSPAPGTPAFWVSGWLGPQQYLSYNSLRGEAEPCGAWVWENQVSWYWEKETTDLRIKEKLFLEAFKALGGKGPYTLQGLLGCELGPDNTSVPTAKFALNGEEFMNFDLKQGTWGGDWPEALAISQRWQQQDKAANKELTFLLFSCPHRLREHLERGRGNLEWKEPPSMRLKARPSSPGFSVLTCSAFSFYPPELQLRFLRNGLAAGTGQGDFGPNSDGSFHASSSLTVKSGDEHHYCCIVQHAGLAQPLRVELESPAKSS
T1 sequence (P61769 21-119 limits assumed, chain 2 of 2): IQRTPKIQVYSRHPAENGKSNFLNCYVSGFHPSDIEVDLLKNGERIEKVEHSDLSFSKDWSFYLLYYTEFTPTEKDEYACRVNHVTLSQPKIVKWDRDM

Row | Binder | Binding percentage (Biotinylated human FcRn) [%] | Kd (Biotinylated human FcRn) [nM] | Binding percentage [1] [%] | Kd [1] [nM] | Binding percentage [2] [%] | Kd [2] [nM] | Binding percentage [3] [%] | Kd [3] [nM] | Binding percentage [4] [%] | further results
1 | Lifastuzumab (v18993, wild-type Fc) (antibody, human IgG1, kappa, Two different heavy chains (heterodimeric Fc)) heavy 1: GEVQLVESGGGLVQPGGSLRLSCAASGFSFSDFAMSWVRQAPGKGLEWVATIGRVAFHTYYPDSMKGRFTISRDNSKNTLYLQMNSLRAEDTAVYYCARHRGFDVGHFDFWGQGTLVTVSSASTKGPSVFPLAPSSKSTSGGTAALGCLVKDYFPEPVTVSWNSGALTSGVHTFPAVLQSSGLYSLSSVVTVPSSSLGTQTYICNVNHKPSNTKVDKKVEPKSCDKTHTCPPCPAPELLGGPSVFLFPPKPKDTLMISRTPEVTCVVVDVSHEDPEVKFNWYVDGVEVHNAKTKPREEQYNSTYRVVSVLTVLHQDWLNGKEYKCKVSNKALPAPIEKTISKAKGQPREPQVYVYPPSRDELTKNQVSLTCLVKGFYPSDIAVEWESNGQPENNYKTTPPVLDSDGSFALVSKLTVDKSRWQQGNVFSCSVMHEALHNHYTQKSLSLSPG heavy 2: not shown light: GDIQMTQSPSSLSASVGDRVTITCRSSETLVHSSGNTYLEWYQQKPGKAPKLLIYRVSNRFSGVPSRFSGSGSGTDFTLTISSLQPEDFATYYCFQGSFNPLTFGQGTKVEIKRTVAAPSVFIFPPSDEQLKSGTASVVCLLNNFYPREAKVQWKVDNALQSGNSQESVTEQDSKDSTYSLSSTLTLSKADYEKHKVYACEVTHQGLSSPVTKSFNRGEC | 25.1 | 68.2 | 71.5 | 2020 | 88.6 | 3740 | 69.6 | 746 | 76.9 | Kd [4]: 0.0966 nM
2 | Upifitamab (v40885, wild-type Fc) (antibody, human IgG1, kappa) heavy 1: GQVQLVQSGAEVVKPGASVKMSCKASGYTFTGYNIHWVKQAPGQGLEWIGAIYPGNGDTSYKQKFRGRATLTADTSTSTVYMELSSLRSEDSAVYYCARGETARATFAYWGQGTLVTVSSASTKGPSVFPLAPSSKSTSGGTAALGCLVKDYFPEPVTVSWNSGALTSGVHTFPAVLQSSGLYSLSSVVTVPSSSLGTQTYICNVNHKPSNTKVDKKVEPKSCDKTHTCPPCPAPELLGGPSVFLFPPKPKDTLMISRTPEVTCVVVDVSHEDPEVKFNWYVDGVEVHNAKTKPREEQYNSTYRVVSVLTVLHQDWLNGKEYKCKVSNKALPAPIEKTISKAKGQPREPQVYVYPPSRDELTKNQVSLTCLVKGFYPSDIAVEWESNGQPENNYKTTPPVLDSDGSFALVSKLTVDKSRWQQGNVFSCSVMHEALHNHYTQKSLSLSPG heavy 2: not shown light: GDIQMTQSPSSLSASVGDRVTITCSASQDIGNFLNWYQQKPGKTVKVLIYYTSSLYSGVPSRFSGSGSGTDYTLTISSLQPEDFATYYCQQYSKLPLTFGQGTKLELKRTVAAPSVFIFPPSDEQLKSGTASVVCLLNNFYPREAKVQWKVDNALQSGNSQESVTEQDSKDSTYSLSSTLTLSKADYEKHKVYACEVTHQGLSSPVTKSFNRGEC | 20.3 | 61.8 | 98.7 | 2380 | 121 | 5780 | 92.1 | 1010 | 97.7 | 
3 | v38591-MC-GGFG-AM-Compound 139 DAR 4 (antibody, human IgG1, kappa, drug-linker MC-GGFG-AM-Compound 139 on cysteines freed by TCEP reduction, DAR 4 over the whole antibody) heavy: not shown light: DVQMTQSPSSLSASVGDRVTITCRASQDVYSYLNWYQQKPGKAVKLLIYYTSRLQSGVPSRFSGSGSGTDYTLTISSLQPEDFATYYCQQYNIFPWTFGQGTKLEIKRTVAAPSVFIFPPSDEQLKSGTASVVCLLNNFYPREAKVQWKVDNALQSGNSQESVTEQDSKDSTYSLSSTLTLSKADYEKHKVYACEVTHQGLSSPVTKSFNRGEC |  |  |  |  |  |  |  |  |  | Bmax (MFI) [5]: 521 MFI; Kd [5]: 0.74 nM; Bmax (MFI) [6]: 10500 MFI; Kd [6]: 0.82 nM; Internalized Fluorescence Fold-Over Untreated, H441, 4 h, 2.5 nM [7]: 1.2 fold; Internalized Fluorescence Fold-Over Untreated, H441, 24 h, 2.5 nM [7]: 2 fold; Internalized Fluorescence Fold-Over Untreated, HCC-78, 4 h, 2.5 nM [7]: 5.6 fold; Internalized Fluorescence Fold-Over Untreated, HCC-78, 24 h, 2.5 nM [7]: 35.9 fold; Internalized Fluorescence Fold-Over Untreated, IGROV-1, 4 h, 2.5 nM [7]: 7.1 fold; Internalized Fluorescence Fold-Over Untreated, IGROV-1, 24 h, 2.5 nM [7]: 26.6 fold; EC50 (nM), in vitro cytotoxicity, H441 spheroids, 7 days [8]: 9.85 nM; EC50 (nM), in vitro cytotoxicity, H1781 spheroids, 7 days [8]: 0.95 nM; Bmax (MFI) [9]: 7810 MFI; Kd [9]: 1.07 nM
